This test has as its target T1, GST-WWP1 (WW-domain containing protein 1) (UniProt Q9H0M0 1-922).
T1 construct: WWP1, HECT-type E3 ligase, full length; source: baculovirus-infected Sf9 insect cells, purified
Put plainly: pull-down; GST or GST-WWP1 (1 μg) immobilised on glutathione-Sepharose 4B, 200 ng AMOTL2-V5; 20 mM Tris-Cl pH 7.9, 150 mM KCl, 0.2 mM EDTA, 20% glycerol, 0.05% NP-40, 0.2 mg/ml BSA; 4°C, 3 h; Western blot. To be noted: both partners purified.

B1: AMOTL2-V5 (angiomotin-like 2) (natural protein, UniProt Q9Y2J4 1-779, looked up)
chain: MRTLEDSSGTVLHRLIQEQLRYGNLTETRTLLAIQQQALRGGAGTGGTGSPQASLEILAPEDSQVLQQATRQEPQGQEHQGGENHLAENTLYRLCPQPSKGEELPTYEEAKAHSQYYAAQQAGTRPHAGDRDPRGAPGGSRRQDEALRELRHGHVRSLSERLLQLSLERNGARAPSHMSSSHSFPQLARNQQGPPLRGPPAEGPESRGPPPQYPHVVLAHETTTAVTDPRYRARGSPHFQHAEVRILQAQVPPVFLQQQQQYQYLQQSQEHPPPPHPAALGHGPLSSLSPPAVEGPVSAQASSATSGSAHLAQMEAVLRENARLQRDNERLQRELESSAEKAGRIEKLESEIQRLSEAHESLTRASSKREALEKTMRNKMDSEMRRLQDFNRDLRERLESANRRLASKTQEAQAGSQDMVAKLLAQSYEQQQEQEKLEREMALLRGAIEDQRRRAELLEQALGNAQGRAARAEEELRKKQAYVEKVERLQQALGQLQAACEKREQLELRLRTRLEQELKALRAQQRQAGAPGGSSGSGGSPELSALRLSEQLREKEEQILALEADMTKWEQKYLEERAMRQFAMDAAATAAAQRDTTLIRHSPQPSPSSSFNEGLLTGGHRHQEMESRLKVLHAQILEKDAVIKVLQQRSRRDPGKAIQGSLRPAKSVPSVFAAAAAGTQGWQGLSSSERQTADAPARLTTDRAPTEEPVVTAPPAAHAKHGSRDGSTQTEGPPDSTSTCLPPEPDSLLGCSSSQRAASLDSVATSRVQDLSDMVEILI
notes: AMOTL2 (angiomotin-like 2), full length; The legends print AMOTL-V5; the text prints AMOTL2-V5; also called AMOTL-V5; source: baculovirus-infected Sf9 insect cells, purified
B1: the binding result is reported as “binds”.

The values are drawn from publication PMC8372784, “AMOTL2 mono-ubiquitination by WWP1 promotes contact inhibition by facilitating LATS activation” (Life Science Alliance, 2021).
